Values joined by “and” are separate entries in the source; they are usually repeats but may differ in a detail not shown here. Equal values may be shown once. A value given as a limit tells only on which side of the number the result lay.

Here are results for eleven molecules from US20180258408A1.

This experiment concerns the target M6P receptors on MEF-1 fibroblasts. In words: cell-based or functional assay.

B1: sulfamidase modified with R1 oxidation at 22 °C, 120 min, 10 mmol/L sodium meta-periodate (enzyme)
chain: RPRNALLLLADDGGFESGAYNNSAIATPHLDALARRSLLFRNAFTSVSSCSPSRASLLTGLPQHQNGMYGLHQDVHHFNSFDKVRSLPLLLSQAGVRTGIIGKKHVGPETVYPFDFAYTEENGSVLQVGRNITRIKLLVRKFLQTQDDRPFFLYVAFHDPHRCGHSQPQYGTFCEKFGNGESGMGRIPDWTPQAYDPLDVLVPYFVPNTPAARADLAAQYTTVGRMDQGVGLVLQELRDAGVLNDTLVIFTSDNGIPFPSGRTNLYWPGTAEPLLVSSPEHPKRWGQVSEAYVSLLDLTPTILDWFSIPYPSYAIFGSKTIHLTGRSLLPALEAEPLWATVFGSQSHHEVTMSYPMRSVQHRHFRLVHNLNFKMPFPIDQDFYVSPTFQDLLNRTTAGQPTGWYKDLRHYYYRARWELYDRSRDPHETQNLATDPRFAQLLEMLRDQLAKWQWETHDPWVCAPDGVLEEKLSPQCQPLHNEL
modifications: N-glycans oxidised with periodate (22 °C, 120 min, 10 mmol/L), then reduced with borohydride as in new method 1
Turning to B1, the Cell uptake % of unmodified sulfamidase uptake (% of unmodified sulfamidase uptake) was 8.5.

B2: sulfamidase modified with R1 oxidation at 22 °C, 30 min, 40 mmol/L sodium meta-periodate (enzyme)
chain: RPRNALLLLADDGGFESGAYNNSAIATPHLDALARRSLLFRNAFTSVSSCSPSRASLLTGLPQHQNGMYGLHQDVHHFNSFDKVRSLPLLLSQAGVRTGIIGKKHVGPETVYPFDFAYTEENGSVLQVGRNITRIKLLVRKFLQTQDDRPFFLYVAFHDPHRCGHSQPQYGTFCEKFGNGESGMGRIPDWTPQAYDPLDVLVPYFVPNTPAARADLAAQYTTVGRMDQGVGLVLQELRDAGVLNDTLVIFTSDNGIPFPSGRTNLYWPGTAEPLLVSSPEHPKRWGQVSEAYVSLLDLTPTILDWFSIPYPSYAIFGSKTIHLTGRSLLPALEAEPLWATVFGSQSHHEVTMSYPMRSVQHRHFRLVHNLNFKMPFPIDQDFYVSPTFQDLLNRTTAGQPTGWYKDLRHYYYRARWELYDRSRDPHETQNLATDPRFAQLLEMLRDQLAKWQWETHDPWVCAPDGVLEEKLSPQCQPLHNEL
modifications: N-glycans oxidised with periodate (22 °C, 30 min, 40 mmol/L), then reduced with borohydride as in new method 1
On to B2, for which the Cell uptake % of unmodified sulfamidase uptake (% of unmodified sulfamidase uptake) was 2.7.

B3: sulfamidase modified with R1 oxidation at 0 °C, 120 min, 40 mmol/L sodium meta-periodate (enzyme)
chain: RPRNALLLLADDGGFESGAYNNSAIATPHLDALARRSLLFRNAFTSVSSCSPSRASLLTGLPQHQNGMYGLHQDVHHFNSFDKVRSLPLLLSQAGVRTGIIGKKHVGPETVYPFDFAYTEENGSVLQVGRNITRIKLLVRKFLQTQDDRPFFLYVAFHDPHRCGHSQPQYGTFCEKFGNGESGMGRIPDWTPQAYDPLDVLVPYFVPNTPAARADLAAQYTTVGRMDQGVGLVLQELRDAGVLNDTLVIFTSDNGIPFPSGRTNLYWPGTAEPLLVSSPEHPKRWGQVSEAYVSLLDLTPTILDWFSIPYPSYAIFGSKTIHLTGRSLLPALEAEPLWATVFGSQSHHEVTMSYPMRSVQHRHFRLVHNLNFKMPFPIDQDFYVSPTFQDLLNRTTAGQPTGWYKDLRHYYYRARWELYDRSRDPHETQNLATDPRFAQLLEMLRDQLAKWQWETHDPWVCAPDGVLEEKLSPQCQPLHNEL
modifications: N-glycans oxidised with periodate (0 °C, 120 min, 40 mmol/L), then reduced with borohydride as in new method 1
The molecule B3 came in with a Cell uptake % of unmodified sulfamidase uptake (% of unmodified sulfamidase uptake) of 3.5.

B4: sulfamidase modified with R1 oxidation at 22 °C, 120 min, 40 mmol/L sodium meta-periodate (enzyme)
chain: RPRNALLLLADDGGFESGAYNNSAIATPHLDALARRSLLFRNAFTSVSSCSPSRASLLTGLPQHQNGMYGLHQDVHHFNSFDKVRSLPLLLSQAGVRTGIIGKKHVGPETVYPFDFAYTEENGSVLQVGRNITRIKLLVRKFLQTQDDRPFFLYVAFHDPHRCGHSQPQYGTFCEKFGNGESGMGRIPDWTPQAYDPLDVLVPYFVPNTPAARADLAAQYTTVGRMDQGVGLVLQELRDAGVLNDTLVIFTSDNGIPFPSGRTNLYWPGTAEPLLVSSPEHPKRWGQVSEAYVSLLDLTPTILDWFSIPYPSYAIFGSKTIHLTGRSLLPALEAEPLWATVFGSQSHHEVTMSYPMRSVQHRHFRLVHNLNFKMPFPIDQDFYVSPTFQDLLNRTTAGQPTGWYKDLRHYYYRARWELYDRSRDPHETQNLATDPRFAQLLEMLRDQLAKWQWETHDPWVCAPDGVLEEKLSPQCQPLHNEL
modifications: N-glycans oxidised with periodate (22 °C, 120 min, 40 mmol/L), then reduced with borohydride as in new method 1
B4 came in with a Cell uptake % of unmodified sulfamidase uptake (% of unmodified sulfamidase uptake) of 3.5.

B5: sulfamidase modified with R1 oxidation at 0 °C, 30 min, 40 mmol/L sodium meta-periodate (enzyme)
chain: RPRNALLLLADDGGFESGAYNNSAIATPHLDALARRSLLFRNAFTSVSSCSPSRASLLTGLPQHQNGMYGLHQDVHHFNSFDKVRSLPLLLSQAGVRTGIIGKKHVGPETVYPFDFAYTEENGSVLQVGRNITRIKLLVRKFLQTQDDRPFFLYVAFHDPHRCGHSQPQYGTFCEKFGNGESGMGRIPDWTPQAYDPLDVLVPYFVPNTPAARADLAAQYTTVGRMDQGVGLVLQELRDAGVLNDTLVIFTSDNGIPFPSGRTNLYWPGTAEPLLVSSPEHPKRWGQVSEAYVSLLDLTPTILDWFSIPYPSYAIFGSKTIHLTGRSLLPALEAEPLWATVFGSQSHHEVTMSYPMRSVQHRHFRLVHNLNFKMPFPIDQDFYVSPTFQDLLNRTTAGQPTGWYKDLRHYYYRARWELYDRSRDPHETQNLATDPRFAQLLEMLRDQLAKWQWETHDPWVCAPDGVLEEKLSPQCQPLHNEL
modifications: N-glycans oxidised with periodate (0 °C, 30 min, 40 mmol/L), then reduced with borohydride as in new method 1
With B5, the Cell uptake % of unmodified sulfamidase uptake (% of unmodified sulfamidase uptake) amounted to 3.8.

B6: sulfamidase modified according to the known method (WO 2008/109677) (enzyme)
chain: RPRNALLLLADDGGFESGAYNNSAIATPHLDALARRSLLFRNAFTSVSSCSPSRASLLTGLPQHQNGMYGLHQDVHHFNSFDKVRSLPLLLSQAGVRTGIIGKKHVGPETVYPFDFAYTEENGSVLQVGRNITRIKLLVRKFLQTQDDRPFFLYVAFHDPHRCGHSQPQYGTFCEKFGNGESGMGRIPDWTPQAYDPLDVLVPYFVPNTPAARADLAAQYTTVGRMDQGVGLVLQELRDAGVLNDTLVIFTSDNGIPFPSGRTNLYWPGTAEPLLVSSPEHPKRWGQVSEAYVSLLDLTPTILDWFSIPYPSYAIFGSKTIHLTGRSLLPALEAEPLWATVFGSQSHHEVTMSYPMRSVQHRHFRLVHNLNFKMPFPIDQDFYVSPTFQDLLNRTTAGQPTGWYKDLRHYYYRARWELYDRSRDPHETQNLATDPRFAQLLEMLRDQLAKWQWETHDPWVCAPDGVLEEKLSPQCQPLHNEL
modifications: N-glycans oxidised with 20 mM sodium meta-periodate (6.5 h) and reduced with 100 mM sodium borohydride (overnight); FGly50 about 56% converted to Ser; Met184 and Met443 almost completely oxidised
Consider B6, for which the specific activity in cell homogenate (endocytosis in MEF-1 cells) (% of unmodified recombinant sulfamidase) was less than 10.

B7: sulfamidase modified according to new method 4 (enzyme)
chain: RPRNALLLLADDGGFESGAYNNSAIATPHLDALARRSLLFRNAFTSVSSCSPSRASLLTGLPQHQNGMYGLHQDVHHFNSFDKVRSLPLLLSQAGVRTGIIGKKHVGPETVYPFDFAYTEENGSVLQVGRNITRIKLLVRKFLQTQDDRPFFLYVAFHDPHRCGHSQPQYGTFCEKFGNGESGMGRIPDWTPQAYDPLDVLVPYFVPNTPAARADLAAQYTTVGRMDQGVGLVLQELRDAGVLNDTLVIFTSDNGIPFPSGRTNLYWPGTAEPLLVSSPEHPKRWGQVSEAYVSLLDLTPTILDWFSIPYPSYAIFGSKTIHLTGRSLLPALEAEPLWATVFGSQSHHEVTMSYPMRSVQHRHFRLVHNLNFKMPFPIDQDFYVSPTFQDLLNRTTAGQPTGWYKDLRHYYYRARWELYDRSRDPHETQNLATDPRFAQLLEMLRDQLAKWQWETHDPWVCAPDGVLEEKLSPQCQPLHNEL
modifications: N-glycans oxidised with 20 mM sodium meta-periodate (0 °C, 120 min) and reduced with 10 mM sodium borohydride; FGly50 about 11% converted to Ser
For the molecule B7, the specific activity in cell homogenate (endocytosis in MEF-1 cells) (% of unmodified recombinant sulfamidase) was less than 10.

B8: sulfamidase modified according to new method 1 (enzyme)
chain: RPRNALLLLADDGGFESGAYNNSAIATPHLDALARRSLLFRNAFTSVSSCSPSRASLLTGLPQHQNGMYGLHQDVHHFNSFDKVRSLPLLLSQAGVRTGIIGKKHVGPETVYPFDFAYTEENGSVLQVGRNITRIKLLVRKFLQTQDDRPFFLYVAFHDPHRCGHSQPQYGTFCEKFGNGESGMGRIPDWTPQAYDPLDVLVPYFVPNTPAARADLAAQYTTVGRMDQGVGLVLQELRDAGVLNDTLVIFTSDNGIPFPSGRTNLYWPGTAEPLLVSSPEHPKRWGQVSEAYVSLLDLTPTILDWFSIPYPSYAIFGSKTIHLTGRSLLPALEAEPLWATVFGSQSHHEVTMSYPMRSVQHRHFRLVHNLNFKMPFPIDQDFYVSPTFQDLLNRTTAGQPTGWYKDLRHYYYRARWELYDRSRDPHETQNLATDPRFAQLLEMLRDQLAKWQWETHDPWVCAPDGVLEEKLSPQCQPLHNEL
modifications: N-glycans oxidised with 20 mM sodium meta-periodate (0 °C, 120 min) and reduced with 50 mM sodium borohydride (0 °C, 120 min); FGly50 about 45% converted to Ser
Consider B8, for which the specific activity in cell homogenate (endocytosis in MEF-1 cells) (% of unmodified recombinant sulfamidase) was less than 10.

B9: sulfamidase modified with R1 oxidation at 8 °C, 60 min, 20 mmol/L sodium meta-periodate (enzyme)
chain: RPRNALLLLADDGGFESGAYNNSAIATPHLDALARRSLLFRNAFTSVSSCSPSRASLLTGLPQHQNGMYGLHQDVHHFNSFDKVRSLPLLLSQAGVRTGIIGKKHVGPETVYPFDFAYTEENGSVLQVGRNITRIKLLVRKFLQTQDDRPFFLYVAFHDPHRCGHSQPQYGTFCEKFGNGESGMGRIPDWTPQAYDPLDVLVPYFVPNTPAARADLAAQYTTVGRMDQGVGLVLQELRDAGVLNDTLVIFTSDNGIPFPSGRTNLYWPGTAEPLLVSSPEHPKRWGQVSEAYVSLLDLTPTILDWFSIPYPSYAIFGSKTIHLTGRSLLPALEAEPLWATVFGSQSHHEVTMSYPMRSVQHRHFRLVHNLNFKMPFPIDQDFYVSPTFQDLLNRTTAGQPTGWYKDLRHYYYRARWELYDRSRDPHETQNLATDPRFAQLLEMLRDQLAKWQWETHDPWVCAPDGVLEEKLSPQCQPLHNEL
modifications: N-glycans oxidised with periodate (8 °C, 60 min, 20 mmol/L), then reduced with borohydride as in new method 1
On to B9, for which the Cell uptake % of unmodified sulfamidase uptake (% of unmodified sulfamidase uptake) was 6.1 and 6.5.

B10: sulfamidase modified with R1 oxidation at 0 °C, 120 min, 10 mmol/L sodium meta-periodate (enzyme)
chain: RPRNALLLLADDGGFESGAYNNSAIATPHLDALARRSLLFRNAFTSVSSCSPSRASLLTGLPQHQNGMYGLHQDVHHFNSFDKVRSLPLLLSQAGVRTGIIGKKHVGPETVYPFDFAYTEENGSVLQVGRNITRIKLLVRKFLQTQDDRPFFLYVAFHDPHRCGHSQPQYGTFCEKFGNGESGMGRIPDWTPQAYDPLDVLVPYFVPNTPAARADLAAQYTTVGRMDQGVGLVLQELRDAGVLNDTLVIFTSDNGIPFPSGRTNLYWPGTAEPLLVSSPEHPKRWGQVSEAYVSLLDLTPTILDWFSIPYPSYAIFGSKTIHLTGRSLLPALEAEPLWATVFGSQSHHEVTMSYPMRSVQHRHFRLVHNLNFKMPFPIDQDFYVSPTFQDLLNRTTAGQPTGWYKDLRHYYYRARWELYDRSRDPHETQNLATDPRFAQLLEMLRDQLAKWQWETHDPWVCAPDGVLEEKLSPQCQPLHNEL
modifications: N-glycans oxidised with periodate (0 °C, 120 min, 10 mmol/L), then reduced with borohydride as in new method 1
In the case of B10, the Cell uptake % of unmodified sulfamidase uptake (% of unmodified sulfamidase uptake) was 9.5.

B11: sulfamidase modified with R1 oxidation at 0 °C, 30 min, 10 mmol/L sodium meta-periodate (enzyme)
chain: RPRNALLLLADDGGFESGAYNNSAIATPHLDALARRSLLFRNAFTSVSSCSPSRASLLTGLPQHQNGMYGLHQDVHHFNSFDKVRSLPLLLSQAGVRTGIIGKKHVGPETVYPFDFAYTEENGSVLQVGRNITRIKLLVRKFLQTQDDRPFFLYVAFHDPHRCGHSQPQYGTFCEKFGNGESGMGRIPDWTPQAYDPLDVLVPYFVPNTPAARADLAAQYTTVGRMDQGVGLVLQELRDAGVLNDTLVIFTSDNGIPFPSGRTNLYWPGTAEPLLVSSPEHPKRWGQVSEAYVSLLDLTPTILDWFSIPYPSYAIFGSKTIHLTGRSLLPALEAEPLWATVFGSQSHHEVTMSYPMRSVQHRHFRLVHNLNFKMPFPIDQDFYVSPTFQDLLNRTTAGQPTGWYKDLRHYYYRARWELYDRSRDPHETQNLATDPRFAQLLEMLRDQLAKWQWETHDPWVCAPDGVLEEKLSPQCQPLHNEL
modifications: N-glycans oxidised with periodate (0 °C, 30 min, 10 mmol/L), then reduced with borohydride as in new method 1
Turning to B11, the Cell uptake % of unmodified sulfamidase uptake (% of unmodified sulfamidase uptake) worked out at 12.
